Assay results taken from IntAct's records for PubMed 15070733.

What was measured:
fbw1b_human FBXW11 = fbw1b_human FBXW11 (UniProt Q9UKB1)
fbw1a_human BTRC = fbw1a_human BTRC (UniProt Q9Y297)
Sequence of fbw1a_human BTRC (Q9Y297 whole entry): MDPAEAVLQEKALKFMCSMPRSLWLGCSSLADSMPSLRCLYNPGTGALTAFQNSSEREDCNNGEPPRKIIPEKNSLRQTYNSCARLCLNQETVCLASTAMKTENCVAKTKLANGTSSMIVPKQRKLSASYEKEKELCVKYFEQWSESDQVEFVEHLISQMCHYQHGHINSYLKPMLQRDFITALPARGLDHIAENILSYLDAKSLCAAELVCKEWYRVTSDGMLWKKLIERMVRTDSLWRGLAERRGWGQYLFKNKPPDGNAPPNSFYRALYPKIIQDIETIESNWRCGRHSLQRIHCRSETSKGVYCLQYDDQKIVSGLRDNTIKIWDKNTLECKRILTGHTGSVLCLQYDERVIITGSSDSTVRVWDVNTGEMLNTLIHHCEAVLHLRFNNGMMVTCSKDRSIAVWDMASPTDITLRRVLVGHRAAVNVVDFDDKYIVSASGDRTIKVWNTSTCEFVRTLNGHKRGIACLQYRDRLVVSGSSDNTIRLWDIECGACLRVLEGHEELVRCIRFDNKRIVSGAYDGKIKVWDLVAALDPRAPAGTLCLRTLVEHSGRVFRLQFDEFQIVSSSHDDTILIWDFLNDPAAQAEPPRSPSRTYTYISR

Sequence of fbw1b_human FBXW11 (Q9UKB1 whole entry): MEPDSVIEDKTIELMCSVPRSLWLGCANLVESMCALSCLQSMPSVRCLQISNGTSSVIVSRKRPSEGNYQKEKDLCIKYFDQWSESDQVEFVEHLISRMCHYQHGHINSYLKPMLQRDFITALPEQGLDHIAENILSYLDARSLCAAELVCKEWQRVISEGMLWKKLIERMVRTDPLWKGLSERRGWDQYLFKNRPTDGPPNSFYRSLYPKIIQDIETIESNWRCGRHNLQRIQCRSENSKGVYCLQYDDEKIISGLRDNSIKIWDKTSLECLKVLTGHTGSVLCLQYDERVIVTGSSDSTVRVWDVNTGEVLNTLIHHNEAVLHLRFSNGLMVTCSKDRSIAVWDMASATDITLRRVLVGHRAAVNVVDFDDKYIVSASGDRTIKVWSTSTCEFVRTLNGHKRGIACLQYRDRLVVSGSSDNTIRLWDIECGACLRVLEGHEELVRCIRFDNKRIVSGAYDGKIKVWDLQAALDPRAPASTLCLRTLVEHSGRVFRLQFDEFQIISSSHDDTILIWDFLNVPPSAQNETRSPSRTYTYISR

effect of a mutation on the interaction (fbw1b_human FBXW11) | effect of a mutation on the interaction (fbw1a_human BTRC) | Substance
decreasing interaction | – | Wee1-like protein kinase (Homo sapiens), P30291 D52A;S123A
– | decreasing interaction | Wee1-like protein kinase (Homo sapiens), P30291 S123A
– | decreasing interaction | Wee1-like protein kinase (Homo sapiens), P30291 S121A
decreasing interaction | – | Wee1-like protein kinase (Homo sapiens), P30291 S53A;S123A
– | decreasing interaction | Wee1-like protein kinase (Homo sapiens), P30291 E116A;E117A
